Each block holds one molecule with its values, some of them ahead of it.
How the values were obtained:
[1] = target: SP-C L188Q with the site 2 mutations (human) (UniProt P11686); test: co-IP; 293T cells co-transfected with an SP-C construct and one co-chaperone (BiP co-transfected in the GRP170 experiments; 20 mM NEM in wash and lysis for ERdj5); NP-40 lysates 24 h after transfection, immunoprecipitated with anti-SP-C overnight at 4 °C, Protein A agarose, washed with buffer containing 0.4 M NaCl; co-chaperones detected by western blot; in Fig. 4 signals normalised to SP-C and expressed as percent of parental L188Q
[2] = target: 3HA-tagged SP-C L188Q (human) (UniProt P11686)
[3] = substrate: SP-C L188Q with the site 2 mutations (human) (UniProt P11686); test: co-IP; 293T cells co-transfected with an SP-C construct and one co-chaperone (BiP co-transfected in the GRP170 experiments; 20 mM NEM in wash and lysis for ERdj5); NP-40 lysates 24 h after transfection, immunoprecipitated with anti-SP-C overnight at 4 °C, Protein A agarose, washed with buffer containing 0.4 M NaCl; co-chaperones detected by western blot; in Fig. 4 signals normalised to SP-C and expressed as percent …

percent reduction of binding against parental L188Q [1]: 70%
Molecule: ERdj4-3HA (mouse) (from UniProt Q9QYI6 24-222) (natural protein)

percent of wild-type SP-C that is palmitoylated (a measure of transport to the Golgi) when co-expressed with the L188Q mutant; 17.6% when expressed alone [2]: 10%
Molecule: wild-type surfactant protein C (SP-C) proprotein, untagged (from UniProt P11686 1-58) (natural protein)

percent reduction of binding against parental L188Q [3]: 30%
B1: ERdj5 (mouse) (natural protein)
chain: DQNFYSLLGVSKTASSREIRQAFKKLALKLHPDKNPNNPNAHGDFLKINRAYEVLKDEDLRKKYDKYGEKGLEDNQGGQYESWSYYRYDFGIYDDDPEIITLERREFDAAVNSGELWFVNFYSPGCSHCHDLAPTWREFAKEVDGLLRIGAVNCGDDRMLCRMKGVNSYPSLFIFRSGMAAVKYNGDRSKESLVAFAMQHVRSTVTELSTGNFVNAIETAFAAGVGWLITFCSKGEDCLTSQTRLRLSGMLDGLVNVGWVDCDAQDSLCKSLDTTASTTAYFPPGATLNDREKSSVLFLNSLDAKEIYMEIIHNLPDFELLSANQLEDRLAHHRWLVFFHFGKNENANDPELKKLKTLLKNEHIQVGRFDCSSAPGICSDLYVFQPCLAVFKGQGTKEYEIHHGKKILYDILAFAKESVNSHVTTLGPQNFPASDKEPWLVDFFAPWCPPCRALLPELRKASTLLYGQLKVGTLDCTIHEGLCNMYNIQAYPTTVVFNQSSIHEYEGHHSAEQILEFIEDLRNPSVVSLTPSTFNELVKQRKHDEVWMVDFYSPWCHPCQVLMPEWKRMARTLTGLINVGSVDCQQYHSFCTQENVQRYPEIRFYPQKSSKAYQYHSYNGWNRDAYSLRSWGLGFLPQASIDLTPQTFNEKVLQGKTHWVVDFYAPWCGPCQNFAPEFELLARMIKGKVRAGKVDCQAYPQTCQKAGIKAYPSVKLYQYERAKKSIWEEQINSRDAKTIAALIYGKLETLQSQVKRNKDEL

percent of the binding to parental L188Q [3]: 30%
B2: GRP170 (human) (natural protein)
chain: LAVMSVDLGSESMKVAIVKPGVPMEIVLNKESRRKTPVIVTLKENERFFGDSAASMAIKNPKATLRYFQHLLGKQADNPHVALYQARFPEHELTFDPQRQTVHFQISSQLQFSPEEVLGMVLNYSRSLAEDFAEQPIKDAVITVPVFFNQAERRAVLQAARMAGLKVLQLINDNTATALSYGVFRRKDINTTAQNIMFYDMGSGSTVCTIVTYQMVKTKEAGMQPQLQIRGVGFDRTLGGLEMELRLRERLAGLFNEQRKGQRAKDVRENPRAMAKLLREANRLKTVLSANADHMAQIEGLMDDVDFKAKVTRVEFEELCADLFERVPGPVQQALQSAEMSLDEIEQVILVGGATRVPRVQEVLLKAVGKEELGKNINADEAAAMGAVYQAAALSKAFKVKPFVVRDAVVYPILVEFTREVEEEPGIHSLKHNKRVLFSRMGPYPQRKVITFNRYSHDFNFHINYGDLGFLGPEDLRVFGSQNLTTVKLKGVGDSFKKYPDYESKGIKAHFNLDESGVLSLDRVESVFETLVEDSAEEESTLTKLGNTISSLFGGGTTPDAKENGTDTVQEEEESPAEGSKDEPGEQVELKEEAEAPVEDGSQPPPPEPKGDATPEGEKATEKENGDKSEAQKPSEKAEAGPEGVAPAPEGEKKQKPARKRRMVEEIGVELVVLDLPDLPEDKLAQSVQKLQDLTLRDLEKQEREKAANSLEAFIFETQDKLYQPEYQEVSTEEQREEISGKLSAASTWLEDEGVGATTVMLKEKLAELRKLCQGLFFRVEERKKWPERLSALDNLLNHSSMFLKGARLIPEMDQIFTEVEMTTLEKVINETWAWKNATLAEQAKLPATEKPVLLSKDIEAKMMALDREVQYLLNKAKFTKPRPRPKDKNGTRAEPPLNASASDQGEKVIPPAGQTEDAEPISEPEKVETGSEPGDTEPLELGGPGAEPEQKEQSTGQKRPLKNDEL
